This is an account of results in patent US20130089893A1.

In assay [1] the target is heat-aggregated IgG (HAGG). Briefly: BIAcore equilibrium binding over immobilised HAGG; two-binding site model, KD1. A general note: Surface plasmon resonance follows binding to a sensor surface in real time, without labels.
Assay [2] addresses heat-aggregated IgG (HAGG). Kind of assay: flow cytometry: inhibition of HAGG binding to human FcγRIIb on IIA1.6 cells. In general terms: Flow cytometry measures light scatter and fluorescence of single cells or particles in a stream.
Assay [3] has as its target heat-aggregated IgG (HAGG). Kind of assay: cell-based or functional assay.
For assay [4], the target named is human IgG monomer (Sandoglobulin, Novartis) (human). Kind of assay: BIAcore equilibrium binding over immobilised human IgG monomer; two-binding site model, KD1.
The target is the same in assay [5]. Briefly: BIAcore equilibrium binding over immobilised IgG (Sandoglobulin).
In assay [6] the target is dimer-IgG (Wright et al., 1980). Kind of assay: flow cytometry, inhibition of dimer-IgG binding to human neutrophils (volunteer V1, Fcγ receptors m8) by purified rsFcγRIIa dimer.
For assay [7] the target is unchanged. Kind of assay: flow cytometry: inhibition of dimer-IgG binding to neutrophils from two different individuals.
Assay [8] addresses heat-aggregated IgG (HAGG). Briefly: BIAcore equilibrium binding over immobilised HAGG; two-binding site model, KD2.
The target of assay [9] is human IgG monomer (Sandoglobulin, Novartis) (human). Briefly: BIAcore equilibrium binding over immobilised human IgG monomer; two-binding site model, KD2.
In assay [10] the target is heat-aggregated IgG (HAGG). Kind of assay: BIAcore equilibrium binding over immobilised HAGG; KD1 against the monomer's KD.
Assay [11] has as its target dimer-IgG (Wright et al., 1980). Kind of assay: flow cytometry: inhibition of dimer-IgG binding to human neutrophils.
The target in assay [12] is human IgG monomer (Sandoglobulin, Novartis) (human). Kind of assay: BIAcore equilibrium binding over immobilised IgG (Sandoglobulin), rounded value of the discussion.
Assay [13] deals with heat-aggregated IgG (HAGG). Briefly: BIAcore equilibrium binding, receptor injected over immobilised HAGG; single-binding site.
In assay [14] the target is human IgG monomer (Sandoglobulin, Novartis) (human). Kind of assay: BIAcore equilibrium binding, receptor injected over immobilised human IgG monomer (Sandoglobulin); single-binding site.
The target of assay [15] is ovalbumin-anti-ovalbumin immune complexes (OVA ICs). Kind of assay: cell-based or functional assay.

As usually defined, the Kd is the free concentration of one partner at which half of the binding sites on the other are occupied at equilibrium, for simple one-to-one binding. Lower therefore signals higher affinity. What is called IC50 is the concentration at which inhibition is half-maximal. Read a high IC50 as lower potency.

On to “recombinant soluble FcγRIIa dimer (rsFcγRIIa dimer), head to tail homodimer construct of FIG. 1 (from UniProt P12318 34-215) (receptor)”, for which the Kd turned out to be 0.00273 µM in assay [1]; 0.0032 µM in [4]; 0.099 µM in assay [8]; 0.1 µM in assay [9]; 0.003 µM in assay [12]. Besides, the IC50 in [2] is 0.0039 mg/L; in assay [6], 0.9 mg/L; in [7], 0.9 to 1.1 mg/L; in [11], 1.1 mg/L. In assay [2], this substance had a fold more potent than the monomer protein above 500 fold. In addition, in assay [3], the IC50, HAGG-induced CD62P upregulation on human platelets came out at 3.9 mg/L. For the same substance, in assay [3], the fold potency against rsFcγRIIa monomer, HAGG-induced platelet activation is 5 fold. For the same substance, the fold greater avidity than the monomeric receptor in assay [5] is 300 fold. Moreover, the fold lesser KD than monomeric rsFcγRIIa in assay [10] came to 300 fold. In assay [11], this substance yielded a fold more active than rsFcγRIIa monomer of 10 fold.

“recombinant soluble FcγRIIa monomer (rsFcγRIIa monomer), expressed from pBAR426 in HEK 293E cells (from UniProt P12318 34-217) (receptor)”: the Kd in [13] was 1.05 µM; in assay [14], 1.7 µM; in [12], 1 µM. In addition, the IC50 in [11] amounted to 10.5 mg/L.

Substance “rsFcγRIIa monomer (R&D Systems, Cat #1330-CD/CF) (from UniProt P12318 36-218) (receptor)” gave an IC50 in assay [2] of 2.08 mg/L. Also, the IC50, HAGG-induced CD62P upregulation on human platelets in assay [3] amounted to 20.9 mg/L. The IC50, TNF-α release from MC/9 cells induced by OVA ICs in [15] was 17.7 mg/L.
